The data set is described as follows: protein stability index of a GFP-peptide fusion (GPS, HEK-293T) (PSI 1-6); higher = more stable. The note with it: c terminus: a fixed tail appended.

± gives the standard deviation.
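Note: 24-mer peptide tiles fused after GFP, lentivirally expressed, FACS-sorted into six equal bins by GFP/DsRed ratio, decoded by Illumina sequencing, PSI is the read-weighted mean bin number.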

For the sequence AAAHWYGGAEMRTQHWPIRLDGQQ [MYORG], the protein stability index was 2.86 ± 0.15 (treatment: DMSO) and 2.79 ± 0.14 (treatment: MLN4924 1 uM, 8 h).

With AAATTTTTTSAATATTAPPALDIF [SNAP91], the protein stability index worked out at 4.45 ± 0.24 (treatment: DMSO) and 4.61 ± 0.16 (treatment: MLN4924 1 uM, 8 h).

For the sequence AACFDGRLDIVKYLVENNANISIA [FEM1B], the protein stability index runs as follows: (treatment: DMSO) 2.38 ± 0.38; (treatment: MLN4924 1 uM, 8 h) 2.21 ± 0.38.

AAGRVCRPPGPAGTEQSRGLGHGS [CPOX] gave a protein stability index (treatment: DMSO) of 4.44 ± 0.25 and a protein stability index (treatment: MLN4924 1 uM, 8 h) of 4.53 ± 0.4.

On to AAKLLNVDPDNVVLCLLAADEDDD [GADD45A], for which the protein stability index (treatment: DMSO) is 3.68 ± 0.16 and the protein stability index (treatment: MLN4924 1 uM, 8 h) stood at 3.94 ± 0.27.

For AALEEESRQRQSRMEKGEPYMSIQ [SMARCE1], the protein stability index is 4.88 ± 0.34 (treatment: DMSO) and 4.88 ± 0.22 (treatment: MLN4924 1 uM, 8 h).

In turn, AAMLSMVKYNSCADRPFSAPWWFW [POMT2] showed a protein stability index (treatment: DMSO) of 2.31 ± 0.25 and a protein stability index (treatment: MLN4924 1 uM, 8 h) of 2.1 ± 0.31.

On to AAPGKQPGRGHTHAAQGGPLLCPG [ELOA2], for which the protein stability index is, setting by setting: (treatment: DMSO) 4.09 ± 0.31; (treatment: MLN4924 1 uM, 8 h) 4.31 ± 0.26.

On to AASTAAALENLQVEASCSVCLEYL [TRIM39], for which the protein stability index (treatment: DMSO) amounted to 2.74 ± 0.37 and the protein stability index (treatment: MLN4924 1 uM, 8 h) amounted to 2.81 ± 0.48.

For the sequence AATTSKEQEPIGTDLDAVRTPEPL [MYBL2], the protein stability index was 5.46 ± 0.3 (treatment: DMSO) and 5.41 ± 0.25 (treatment: MLN4924 1 uM, 8 h).

In the case of ACGDFFTACLTDRGIIMTFGSGSN [NEK8], the protein stability index turned out to be 2.66 ± 0.83 (treatment: DMSO) and 2.78 ± 0.64 (treatment: MLN4924 1 uM, 8 h).

Turning to ACSAPGGLVPSEKPPMMPQAQPAI [C2CD2L], the protein stability index is 4.24 ± 0.15 (treatment: DMSO) and 4.18 ± 0.19 (treatment: MLN4924 1 uM, 8 h).

For the sequence ADFGLARIYSYQMALTPVVVTLWY [CDK4], the protein stability index runs as follows: (treatment: DMSO) 3.52 ± 0.99; (treatment: MLN4924 1 uM, 8 h) 2.78 ± 0.81.

Regarding ADLELSLPECLEYEEEFDYETESE [GNAS], the protein stability index runs as follows: (treatment: DMSO) 5.41 ± 0.24; (treatment: MLN4924 1 uM, 8 h) 5.47 ± 0.16.

As for ADVLLQAGADLEHESEGGRTPLMK [ANKRD17], the protein stability index was 5.17 ± 0.34 (treatment: DMSO) and 5.29 ± 0.15 (treatment: MLN4924 1 uM, 8 h).

AEDHLDGCCKRRYLQKIEEFAEMV [KCNG1]: the protein stability index is 3.06 ± 0.14 (treatment: DMSO) and 2.96 ± 0.1 (treatment: MLN4924 1 uM, 8 h).

AEGHKASFCLEDTECEGDIQKNYE [LOXL2]: the protein stability index worked out at 5.47 ± 0.4 (treatment: DMSO) and 5.33 ± 0.33 (treatment: MLN4924 1 uM, 8 h).

Regarding AELKEAVEEPSSKDVMEKREDSKE [CHGA], the protein stability index by setting is: (treatment: DMSO) 5.67 ± 0.083; (treatment: MLN4924 1 uM, 8 h) 5.61 ± 0.17.

Take AFGWFRCSSCQRSWASAQVQILCH [RTP4]: the protein stability index is, setting by setting: (treatment: DMSO) 2.45 ± 0.37; (treatment: MLN4924 1 uM, 8 h) 2.68 ± 0.54.

For AFKAAALIQRWYRRYVARLEMRRR [PPEF2], the protein stability index runs as follows: (treatment: DMSO) 3.55 ± 0.57; (treatment: MLN4924 1 uM, 8 h) 4.15 ± 0.59.

For the sequence AFLLLPLPDELGSQLPQVLHVSLG [MOSPD3], the protein stability index runs as follows: (treatment: DMSO) 2.96 ± 0.76; (treatment: MLN4924 1 uM, 8 h) 2.73 ± 0.49.

In the case of AFLRRVKTCNPPDAGPMVVHCSAG [PTPRD], the protein stability index by setting is: (treatment: DMSO) 2.15 ± 0.068; (treatment: MLN4924 1 uM, 8 h) 2.18 ± 0.3.

For the sequence AGEGAEALARNLLVDGETGESFPA [NFE2L1], the protein stability index reads like this: (treatment: DMSO) 5.37 ± 0.09; (treatment: MLN4924 1 uM, 8 h) 5.41 ± 0.21.

As to AGKQRMKEKEQENERKVAQLAEEN [DDIT3], the protein stability index is 5.29 ± 0.41 (treatment: DMSO) and 5.49 ± 0.43 (treatment: MLN4924 1 uM, 8 h).

Regarding AGPELDEMLREVDLNGDGTVDFDE [CABP4], the protein stability index reads like this: (treatment: DMSO) 5.67 ± 0.23; (treatment: MLN4924 1 uM, 8 h) 5.36 ± 0.11.

Regarding AGSTDDRIVVPQRGRSTRVPVASV [SPNS1], the protein stability index reads like this: (treatment: DMSO) 4.22 ± 0.077; (treatment: MLN4924 1 uM, 8 h) 4.39 ± 0.45.

Turning to AGWTLATLGEQGLPHQSHRQRSSL [SCNN1D], the protein stability index reads like this: (treatment: DMSO) 3.62 ± 0.21; (treatment: MLN4924 1 uM, 8 h) 3.75 ± 0.21.

For the sequence AIDQYRVCQEVLERSRDVVDEVSV [RHOBTB1], the protein stability index is, setting by setting: (treatment: DMSO) 4.61 ± 0.21; (treatment: MLN4924 1 uM, 8 h) 4.32 ± 0.15.

Regarding AIRPENRAPGAGLGQDRQVPLWGQ [EMD], the protein stability index runs as follows: (treatment: DMSO) 3.5 ± 0.21; (treatment: MLN4924 1 uM, 8 h) 3.45 ± 0.18.

With AKDPGKGELPNHPKPAGGAIPTKK [FBF1], the protein stability index runs as follows: (treatment: DMSO) 5.47 ± 0.34; (treatment: MLN4924 1 uM, 8 h) 5.65 ± 0.15.

In turn, AKINIVYQELNYRSVEEAPVYSVP [SCNN1D] returned a protein stability index (treatment: DMSO) of 2.17 ± 0.14 and a protein stability index (treatment: MLN4924 1 uM, 8 h) of 2.15 ± 0.45.

With AKKIKLTAEAEELKPFFMKEVGSH [SOAT1], the protein stability index runs as follows: (treatment: DMSO) 3.5 ± 0.34; (treatment: MLN4924 1 uM, 8 h) 3.59 ± 0.38.

ALEEPEKMGLQERSETFLEVWGNA [DNAAF3] registered a protein stability index (treatment: DMSO) of 4.35 ± 0.22 and a protein stability index (treatment: MLN4924 1 uM, 8 h) of 4.32 ± 0.42.

With ALILHQRIHSGKKPYACDECAKAF [ZNF396], the protein stability index was found to be 2.11 ± 0.26 (treatment: DMSO) and 2.84 ± 0.45 (treatment: MLN4924 1 uM, 8 h).

As for ALKEDFGFKHRLWVYSGRRGVHCW [PRIM1], the protein stability index was determined as 2.28 ± 0.65 (treatment: DMSO) and 2.48 ± 0.61 (treatment: MLN4924 1 uM, 8 h).

In the case of ALQPSPSIRLPLDAPLPGSKAKPK [TBC1D10A], the protein stability index by setting is: (treatment: DMSO) 4.19 ± 0.21; (treatment: MLN4924 1 uM, 8 h) 4.32 ± 0.34.
